In IntAct's records for PubMed 21670263:

Key:
cbp_human CREBBP = cbp_human CREBBP (UniProt Q92793)
tf2h1_human GTF2H1 = tf2h1_human GTF2H1 (UniProt P32780)
tf2h1_human GTF2H1, sequence (P32780 whole entry): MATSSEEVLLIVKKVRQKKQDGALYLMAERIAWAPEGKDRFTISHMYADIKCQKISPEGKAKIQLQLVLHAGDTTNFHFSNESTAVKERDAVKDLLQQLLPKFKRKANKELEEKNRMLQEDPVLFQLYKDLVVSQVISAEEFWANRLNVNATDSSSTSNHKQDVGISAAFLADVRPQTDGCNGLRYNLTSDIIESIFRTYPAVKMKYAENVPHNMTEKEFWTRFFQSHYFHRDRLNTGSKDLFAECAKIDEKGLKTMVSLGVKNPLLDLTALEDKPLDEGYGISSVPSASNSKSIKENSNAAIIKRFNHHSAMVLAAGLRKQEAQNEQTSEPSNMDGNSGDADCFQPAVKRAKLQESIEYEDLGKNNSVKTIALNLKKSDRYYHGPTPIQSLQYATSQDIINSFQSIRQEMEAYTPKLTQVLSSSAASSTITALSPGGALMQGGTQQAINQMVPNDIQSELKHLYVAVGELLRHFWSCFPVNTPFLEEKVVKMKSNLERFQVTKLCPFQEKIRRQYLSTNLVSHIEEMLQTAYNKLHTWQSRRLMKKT

Krueppel-like factor 1 (Homo sapiens), Q13351 W73P, sequence (Q13351 whole entry W73P): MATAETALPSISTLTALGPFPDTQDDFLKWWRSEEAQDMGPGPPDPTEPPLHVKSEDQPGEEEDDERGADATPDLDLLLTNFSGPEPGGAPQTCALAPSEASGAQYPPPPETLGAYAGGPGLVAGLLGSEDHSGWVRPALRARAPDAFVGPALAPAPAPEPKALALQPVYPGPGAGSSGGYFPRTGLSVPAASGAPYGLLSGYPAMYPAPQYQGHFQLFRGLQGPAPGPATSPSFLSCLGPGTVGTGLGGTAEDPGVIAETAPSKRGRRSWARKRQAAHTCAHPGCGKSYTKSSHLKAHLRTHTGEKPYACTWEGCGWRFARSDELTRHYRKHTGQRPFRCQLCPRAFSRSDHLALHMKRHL
cbp_human CREBBP, sequence (Q92793 whole entry, looked up): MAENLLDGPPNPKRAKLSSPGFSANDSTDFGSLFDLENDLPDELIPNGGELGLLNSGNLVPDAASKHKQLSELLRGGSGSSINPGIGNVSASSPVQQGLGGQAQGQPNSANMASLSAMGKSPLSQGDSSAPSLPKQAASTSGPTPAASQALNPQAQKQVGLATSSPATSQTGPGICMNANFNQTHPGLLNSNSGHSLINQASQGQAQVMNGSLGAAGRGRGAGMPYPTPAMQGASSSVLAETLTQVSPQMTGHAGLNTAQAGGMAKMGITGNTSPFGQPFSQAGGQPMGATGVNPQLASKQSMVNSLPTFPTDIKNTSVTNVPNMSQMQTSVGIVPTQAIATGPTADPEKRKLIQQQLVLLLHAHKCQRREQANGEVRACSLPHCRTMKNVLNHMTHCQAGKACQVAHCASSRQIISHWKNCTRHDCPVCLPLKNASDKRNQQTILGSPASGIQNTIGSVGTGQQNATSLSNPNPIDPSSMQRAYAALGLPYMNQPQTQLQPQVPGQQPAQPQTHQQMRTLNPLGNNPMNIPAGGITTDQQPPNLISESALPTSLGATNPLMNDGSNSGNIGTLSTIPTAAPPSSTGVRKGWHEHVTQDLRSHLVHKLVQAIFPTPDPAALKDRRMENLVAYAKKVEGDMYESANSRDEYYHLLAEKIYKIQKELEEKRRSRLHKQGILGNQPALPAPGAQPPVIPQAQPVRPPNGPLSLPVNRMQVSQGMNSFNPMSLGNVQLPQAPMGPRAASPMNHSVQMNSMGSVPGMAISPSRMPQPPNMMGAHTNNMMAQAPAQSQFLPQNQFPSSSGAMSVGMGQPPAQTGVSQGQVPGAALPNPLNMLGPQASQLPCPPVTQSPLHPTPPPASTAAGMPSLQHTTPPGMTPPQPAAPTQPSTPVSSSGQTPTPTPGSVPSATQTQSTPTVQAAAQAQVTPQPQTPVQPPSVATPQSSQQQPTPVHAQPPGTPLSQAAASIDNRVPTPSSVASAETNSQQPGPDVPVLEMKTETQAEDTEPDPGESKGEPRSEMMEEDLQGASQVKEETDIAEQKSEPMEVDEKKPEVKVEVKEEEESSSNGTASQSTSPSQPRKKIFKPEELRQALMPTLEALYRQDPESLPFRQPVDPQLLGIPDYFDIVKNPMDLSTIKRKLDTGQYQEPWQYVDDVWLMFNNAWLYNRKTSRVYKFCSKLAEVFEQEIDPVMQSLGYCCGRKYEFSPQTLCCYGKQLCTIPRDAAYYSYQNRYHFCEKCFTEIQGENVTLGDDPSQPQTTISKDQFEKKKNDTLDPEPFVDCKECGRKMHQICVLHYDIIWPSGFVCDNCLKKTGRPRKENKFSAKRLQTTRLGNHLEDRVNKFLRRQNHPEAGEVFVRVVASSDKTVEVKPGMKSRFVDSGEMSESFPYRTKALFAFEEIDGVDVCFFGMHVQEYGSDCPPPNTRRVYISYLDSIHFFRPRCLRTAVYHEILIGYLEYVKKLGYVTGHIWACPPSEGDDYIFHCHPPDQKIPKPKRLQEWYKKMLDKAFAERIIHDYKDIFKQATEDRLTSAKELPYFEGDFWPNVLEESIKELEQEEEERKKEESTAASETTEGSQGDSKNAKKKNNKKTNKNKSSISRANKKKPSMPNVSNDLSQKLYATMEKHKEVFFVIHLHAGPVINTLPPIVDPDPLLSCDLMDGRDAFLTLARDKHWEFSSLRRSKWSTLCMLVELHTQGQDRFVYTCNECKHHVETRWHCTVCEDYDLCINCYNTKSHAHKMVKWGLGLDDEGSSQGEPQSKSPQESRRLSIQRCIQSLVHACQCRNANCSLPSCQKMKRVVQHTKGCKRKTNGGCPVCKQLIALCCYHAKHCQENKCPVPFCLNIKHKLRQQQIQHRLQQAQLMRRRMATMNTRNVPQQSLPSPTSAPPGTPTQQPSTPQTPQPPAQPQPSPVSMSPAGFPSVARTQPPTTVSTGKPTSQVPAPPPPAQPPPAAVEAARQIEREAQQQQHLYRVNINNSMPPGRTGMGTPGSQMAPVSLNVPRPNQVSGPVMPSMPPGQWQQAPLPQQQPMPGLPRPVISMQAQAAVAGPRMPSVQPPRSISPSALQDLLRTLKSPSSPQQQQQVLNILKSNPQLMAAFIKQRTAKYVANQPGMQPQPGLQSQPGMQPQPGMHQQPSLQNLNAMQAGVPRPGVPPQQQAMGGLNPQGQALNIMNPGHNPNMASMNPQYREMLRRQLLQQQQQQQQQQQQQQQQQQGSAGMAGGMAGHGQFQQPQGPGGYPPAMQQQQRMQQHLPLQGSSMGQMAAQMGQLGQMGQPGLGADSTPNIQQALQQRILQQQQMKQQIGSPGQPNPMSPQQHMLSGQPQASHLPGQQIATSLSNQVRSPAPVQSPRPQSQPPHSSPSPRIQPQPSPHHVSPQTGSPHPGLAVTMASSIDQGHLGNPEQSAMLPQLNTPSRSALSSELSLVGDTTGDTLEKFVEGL

For “Krueppel-like factor 1 (Homo sapiens), Q13351 W73P”, the “effect of a mutation on the interaction” value (cbp_human CREBBP) was “disrupting interaction strength” and the “effect of a mutation on the interaction” value (tf2h1_human GTF2H1) was “disrupting interaction strength”.
